From publication PMC12521282

Experiments:
Conditions in all cases: glycan lost; control: wild type
[1] = secreted protein yield, P. pastoris X-33
[2] = DSLNT formation, TLC and HPLC
[3] = CD spectroscopy, secondary structure content
[4] = NanoDSF, onset of melting, Tris buffer
[5] = NanoDSF, midpoint melting temperature
[6] = NanoDSF, onset and Tm, Tris and HEPES

B1: ST6GalNAc5 (Δ71ST6GalNAc5): N137Q/N161Q (protein)
parent chain: MKTLMRHGLAVCLALTTMCTSLLLVYSSLGGQKERPPQQQQQQQQQQQQASATGSSQPAAESSTQQRPGVPAGPRPLDGYLGVADHKPLKMHCRDCALVTSSGHLLHSRQGSQIDQTECVIRMNDAPTRGYGRDVGNRTSLRVIAHSSIQRILRNRHDLLNVSQGTVFIFWGPSSYMRRDGKGQVYNNLHLLSQVLPRLKAFMITRHKMLQFDELFKQETGKDRKISNTWLSTGWFTMTIALELCDRINVYGMVPPDFCRDPNHPSVPYHYYEPFGPDECTMYLSHERGRKGSHHRFITEKRVFKNWARTFNIHFFQPDWKPESLAINHPENKPVF
- expression_or_secretion, fold_change [1]: decreases
- enzymatic_activity, other: DSLNT produced [2]: decreases, 0.189 ± 0.005 (4.5 µM enzyme) vs 0.202 ± 0.036 (1.0 µM enzyme)
- structure_or_conformation [3]: changes
- stability_or_folding, other: onset-of-melting temperature [4]: decreases
- stability_or_folding, Tm [5]: no change

B2: ST6GalNAc6 (Δ70ST6GalNAc6): N98Q/N149Q (protein)
parent chain: MACSRPPSQCEPTSLPPGPPAGRRHLPLSRRRREMSSNKEQRSAVFVILFALITILILYSSNSANEVFHYGSLRGRSRRPVNLKKWSITDGYVPILGNKTLPSRCHQCVIVSSSSHLLGTKLGPEIERAECTIRMNDAPTTGYSADVGNKTTYRVVAHSSVFRVLRRPQEFVNRTPETVFIFWGPPSKMQKPQGSLVRVIQRAGLVFPNMEAYAVSPGRMRQFDDLFRGETGKDREKSHSWLSTGWFTMVIAVELCDHVHVYGMVPPNYCSQRPRLQRMPYHYYEPKGPDECVTYIQNEHSRKGNHHRFITEKRVFSSWAQLYGITFSHPSWT
- expression_or_secretion, fold_change [1]: decreases
- enzymatic_activity [2]: abolishes
- structure_or_conformation [3]: changes
- stability_or_folding, Tm [6]: decreases, reduced by 7.3 (Tris), 10 (HEPES) vs 56.8
